To fix the notation:
B1: [99mTc]Tc-HYNIC-Ahx-JR11 (peptide)
chain: {(99mTc)Tc‑HYNIC/EDDA-Ahx-Cpa}-[dC][Aph(Hor)][dPhe(4-NHCONH2)]KTC[dY]-NH2
modifications: disulfide 1-6 (inferred); reading uncertain; also: 99mTc complex, EDDA coligand, printed as Cpa-c(dCys-Aph(Hor)-dAph(Cbm)-Lys-Thr-Cys)-dTyr-NH2
B2: [99mTc]Tc-HYNIC-Ahx-SS01 (peptide)
chain: {(99mTc)Tc‑HYNIC/EDDA-Ahx-Cpa}-[dC]Y[dW]KTC[dY]-NH2
modifications: disulfide 1-6 (inferred); reading uncertain; also: 99mTc complex, EDDA coligand
B3: [99mTc]Tc-N4-SS01 (peptide)
chain: {(99mTc)Tc‑N4-Cpa}-[dC]Y[dW]KTC[dY]-NH2
modifications: disulfide 1-6 (inferred); reading uncertain; also: 99mTc complex
B4: [99mTc]Tc-N4-JR11 (peptide)
chain: {(99mTc)Tc‑N4-Cpa}-[dC][Aph(Hor)][dPhe(4-NHCONH2)]KTC[dY]-NH2
modifications: disulfide 1-6 (inferred); reading uncertain; also: 99mTc complex, printed as Cpa-c(dCys-Aph(Hor)-dAph(Cbm)-Lys-Thr-Cys)-dTyr-NH2

Bridges are numbered along the chain shown (N, C = ends). [ ]: non-standard residue; d: D form. Aph(Hor) = 4-amino-phenylalanine(L-hydroorotic acid); dPhe(4-NHCONH2) = NC(=O)Nc1ccc(C[C@@H](N)C(=O)O)cc1; Cpa = not defined here; Ahx = NCCCCCC(=O)O

Chain of somatostatin receptor type 2 (SST2) (P30874 whole entry): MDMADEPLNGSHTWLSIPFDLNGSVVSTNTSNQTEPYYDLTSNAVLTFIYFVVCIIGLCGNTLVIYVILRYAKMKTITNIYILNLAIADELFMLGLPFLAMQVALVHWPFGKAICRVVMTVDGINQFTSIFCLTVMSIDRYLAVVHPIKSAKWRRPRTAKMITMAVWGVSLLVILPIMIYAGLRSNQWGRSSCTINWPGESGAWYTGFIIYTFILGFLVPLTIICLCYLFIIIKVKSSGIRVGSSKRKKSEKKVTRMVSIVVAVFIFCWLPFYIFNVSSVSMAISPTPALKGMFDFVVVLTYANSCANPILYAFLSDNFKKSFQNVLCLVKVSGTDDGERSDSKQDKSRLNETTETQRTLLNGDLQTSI

This assay concerns the target somatostatin receptor type 2 (SST2) (Homo sapiens, UniProt P30874). Nature of the assay: saturation binding of radioligand on HEK-SST2 cell membranes.
Broadly, the Kd is a measure of binding affinity in units of concentration. In the case of B1, binding was characterised by a dissociation constant (Kd) of 0.85 nM.
Next, B2: 1.6 nM; B3: 0.92 nM; B4: 0.6 nM.
